The text below walks through data of paper PMC3515690 (Nature structural & molecular biology, 2012).

Residue numbers refer to the chain shown, from its start. In names and notes the source's numbering stands. Read-outs that look alike come from different tables or passages of the source.

Data set [1] concerns the molecule itself. Kind of data set: crystal structure.
Data set [2] concerns the molecule itself. As to the kind of experiment: crystal structure. This is another data set of the same source.
A further data set addresses T1, Atg7 P283D (S. cerevisiae, UniProt P38862 1-630, P283D).
T1 sequence (looked up): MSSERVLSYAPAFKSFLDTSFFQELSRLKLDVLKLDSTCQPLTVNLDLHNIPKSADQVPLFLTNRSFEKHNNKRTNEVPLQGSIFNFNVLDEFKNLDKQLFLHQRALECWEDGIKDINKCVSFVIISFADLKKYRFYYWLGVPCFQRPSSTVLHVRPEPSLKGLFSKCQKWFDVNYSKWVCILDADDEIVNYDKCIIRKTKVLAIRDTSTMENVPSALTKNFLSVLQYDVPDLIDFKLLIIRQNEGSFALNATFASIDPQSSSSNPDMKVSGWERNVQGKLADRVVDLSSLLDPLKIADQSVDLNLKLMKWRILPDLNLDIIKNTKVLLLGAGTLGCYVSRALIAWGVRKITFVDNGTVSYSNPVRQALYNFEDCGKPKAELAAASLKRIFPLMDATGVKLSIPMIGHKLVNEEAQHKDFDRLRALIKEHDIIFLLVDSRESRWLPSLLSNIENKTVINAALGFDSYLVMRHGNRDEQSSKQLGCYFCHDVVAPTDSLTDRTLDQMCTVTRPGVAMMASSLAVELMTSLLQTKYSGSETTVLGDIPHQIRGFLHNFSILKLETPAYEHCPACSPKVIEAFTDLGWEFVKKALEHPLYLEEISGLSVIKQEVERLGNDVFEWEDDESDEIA
As to the kind of experiment: cross-linking.

Data set [3] addresses T2, Atg7 with a Gly-Gly-Ser-Gly insertion after Leu291 (S. cerevisiae, UniProt P38862 1-630, Gly-Gly-Ser-Gly insertion after Atg7’s Leu291).
T2 sequence (looked up): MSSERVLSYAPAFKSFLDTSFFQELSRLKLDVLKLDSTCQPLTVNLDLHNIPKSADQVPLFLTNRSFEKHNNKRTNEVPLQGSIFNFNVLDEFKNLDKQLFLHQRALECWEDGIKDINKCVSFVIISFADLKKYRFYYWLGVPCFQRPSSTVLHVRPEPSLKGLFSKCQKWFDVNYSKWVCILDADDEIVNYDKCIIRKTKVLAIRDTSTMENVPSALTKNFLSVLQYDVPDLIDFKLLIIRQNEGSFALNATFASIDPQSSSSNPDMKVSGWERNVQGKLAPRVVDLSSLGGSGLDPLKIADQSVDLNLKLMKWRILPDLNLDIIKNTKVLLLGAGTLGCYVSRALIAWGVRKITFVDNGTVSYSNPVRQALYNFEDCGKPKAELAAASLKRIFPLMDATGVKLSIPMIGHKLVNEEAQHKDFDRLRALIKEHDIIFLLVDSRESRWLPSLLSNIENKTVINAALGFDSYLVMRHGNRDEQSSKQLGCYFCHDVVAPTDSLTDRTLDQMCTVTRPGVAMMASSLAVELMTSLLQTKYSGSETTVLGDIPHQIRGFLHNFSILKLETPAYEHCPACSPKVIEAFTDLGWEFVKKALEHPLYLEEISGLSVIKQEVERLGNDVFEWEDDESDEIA
As to the kind of experiment: cross-linking.

For data set [4], the target named is T3, Atg7 with residues 290–294 deleted (S. cerevisiae, UniProt P38862 1-630, deletion of residues 290–294).
T3 sequence (looked up): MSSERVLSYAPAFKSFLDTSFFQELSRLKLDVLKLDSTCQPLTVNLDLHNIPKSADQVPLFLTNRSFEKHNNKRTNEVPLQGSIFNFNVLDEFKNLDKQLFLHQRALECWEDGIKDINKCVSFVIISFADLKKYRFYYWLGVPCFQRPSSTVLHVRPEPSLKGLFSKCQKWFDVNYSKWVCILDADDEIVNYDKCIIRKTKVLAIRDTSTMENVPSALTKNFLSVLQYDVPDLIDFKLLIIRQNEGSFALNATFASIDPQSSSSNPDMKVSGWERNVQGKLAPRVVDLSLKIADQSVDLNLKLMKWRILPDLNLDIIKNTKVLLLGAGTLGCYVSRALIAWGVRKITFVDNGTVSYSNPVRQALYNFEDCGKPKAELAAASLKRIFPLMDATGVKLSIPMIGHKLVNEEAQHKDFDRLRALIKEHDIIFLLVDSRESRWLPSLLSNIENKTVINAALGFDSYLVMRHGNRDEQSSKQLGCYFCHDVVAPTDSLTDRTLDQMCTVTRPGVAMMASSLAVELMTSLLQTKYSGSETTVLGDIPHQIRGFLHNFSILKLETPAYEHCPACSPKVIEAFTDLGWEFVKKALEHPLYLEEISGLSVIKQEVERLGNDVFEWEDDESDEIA
Kind of data set: cross-linking.

B1: Atg7 (residues 1–613) (enzyme, S. cerevisiae, UniProt P38862 1-613, looked up)
chain: MSSERVLSYAPAFKSFLDTSFFQELSRLKLDVLKLDSTCQPLTVNLDLHNIPKSADQVPLFLTNRSFEKHNNKRTNEVPLQGSIFNFNVLDEFKNLDKQLFLHQRALECWEDGIKDINKCVSFVIISFADLKKYRFYYWLGVPCFQRPSSTVLHVRPEPSLKGLFSKCQKWFDVNYSKWVCILDADDEIVNYDKCIIRKTKVLAIRDTSTMENVPSALTKNFLSVLQYDVPDLIDFKLLIIRQNEGSFALNATFASIDPQSSSSNPDMKVSGWERNVQGKLAPRVVDLSSLLDPLKIADQSVDLNLKLMKWRILPDLNLDIIKNTKVLLLGAGTLGCYVSRALIAWGVRKITFVDNGTVSYSNPVRQALYNFEDCGKPKAELAAASLKRIFPLMDATGVKLSIPMIGHKLVNEEAQHKDFDRLRALIKEHDIIFLLVDSRESRWLPSLLSNIENKTVINAALGFDSYLVMRHGNRDEQSSKQLGCYFCHDVVAPTDSLTDRTLDQMCTVTRPGVAMMASSLAVELMTSLLQTKYSGSETTVLGDIPHQIRGFLHNFSILKLETPAYEHCPACSPKVIEAFTDLGWEFVKKALEHPLYLEEISGLSVIKQEVER
modifications: catalytic Cys507 linked through bismaleimidoethane (BMOE) to Atg3 Cys234
As to B1, the “stoichiometry N” value in “crystal structure [1]” turned out to be 2.

B2: Atg7(1–613 C39S C195S C375A) (enzyme, S. cerevisiae, UniProt P38862 1-613, looked up)
chain: B1 chain with C39S, C195S, C375A
modifications: catalytic Cys507 linked through bismaleimidoethane (BMOE) to Atg10 Cys133
In the case of B2, the “stoichiometry N” value in the data set “crystal structure [2]” was 2.

B3: Atg10 (Cys133only, with C26A and C137A) (enzyme, S. cerevisiae, UniProt Q07879 1-167, looked up)
chain: MIPYQEWHSQLQSLYDSQIFHNWALAQDVHLNDEKDGLLLRLIPTRQLQKNTERIENKLLNHIELYLTYSKVYNEPLLLLRIWEEKSIDGIPMTKLMLPTDIESLLDVQGKFQLGLDTIINLEGSVWYSFHPCDTSAIVGDQAEFMSTYLRRWVSIFIFSWLGYEDS
modifications: Cys133 reacted with bismaleimidoethane (BMOE)
Consider B3, for which the binding result (with Atg7 P283D; in data set [3]; in data set [4]) was “binds” throughout.
